Patent US7259254B2, “Mutants and assay system to identify USP/RXR ligands” (University of Kentucky Research Foundation, priority 2002, dated 2007)
Numbering of substitutions follows the chain as printed. In names and notes the source's numbering stands. Entries after “also recorded” stand apart in the source; their conditions may differ.

T1: His-tagged wild-type dUSP (Drosophila melanogaster, UniProt P20153)
T1 construct: His tag; made in house; host or cells: bacteria (pET32EK vector)
T1 sequence (P20153 1-508): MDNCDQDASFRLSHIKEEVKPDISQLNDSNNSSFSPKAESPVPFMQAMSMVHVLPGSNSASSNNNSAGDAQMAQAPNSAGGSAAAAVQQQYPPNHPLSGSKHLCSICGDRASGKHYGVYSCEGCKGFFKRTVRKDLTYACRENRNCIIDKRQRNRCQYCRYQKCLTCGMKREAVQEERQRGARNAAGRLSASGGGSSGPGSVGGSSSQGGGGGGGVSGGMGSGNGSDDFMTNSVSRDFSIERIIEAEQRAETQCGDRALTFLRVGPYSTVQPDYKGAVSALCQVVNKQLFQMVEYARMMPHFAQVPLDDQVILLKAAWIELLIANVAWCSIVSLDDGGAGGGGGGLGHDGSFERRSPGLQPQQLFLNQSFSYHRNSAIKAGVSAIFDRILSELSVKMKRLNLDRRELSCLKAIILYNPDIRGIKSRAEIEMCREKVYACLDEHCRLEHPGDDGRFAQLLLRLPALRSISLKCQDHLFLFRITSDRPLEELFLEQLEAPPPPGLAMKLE

B1: W318F: USP mutant, phenylalanine at position 318 (protein)
chain: T1 sequence (P20153 1-508) with W318F
B2: W318F/W328F: USP mutant, phenylalanine at positions 318 and 328 (protein)
chain: T1 sequence (P20153 1-508) with W318F, W328F
B3: P498W/P499W/W318F: USP mutant, tryptophan at 498 and 499, phenylalanine at 318 (protein)
chain: T1 sequence (P20153 1-508) with W318F, P498W, P499W
B4: P498W/P499W/W318F/W328F: USP mutant, tryptophan at 498 and 499, phenylalanine at 318 and 328 (protein)
chain: T1 sequence (P20153 1-508) with W318F, W328F, P498W, P499W
B5: C472A/H475L: dUSP ligand-binding pocket double mutant, alanine at 472 and leucine at 475 (protein)
chain: T1 sequence (P20153 1-508) with C472A, H475L
B6: Q288A: dUSP mutant, Gln288 mutated to alanine (protein)
chain: T1 sequence (P20153 1-508) with Q288A
B7: W328F: USP mutant, phenylalanine at position 328 (protein)
chain: T1 sequence (P20153 1-508) with W328F
B8: P498W/P499W: USP mutant, two prolines at end of α-helix 12 replaced with tryptophan (protein)
chain: T1 sequence (P20153 1-508) with P498W, P499W
B9: wild-type dUSP: wild type Drosophila melanogaster Ultraspiracle receptor, SEQ ID NO: 2 (protein)
chain: T1 sequence (P20153 1-508)
modifications: Drosophila melanogaster

target: T1, His-tagged wild-type dUSP; test: Intrinsic tryptophan fluorescence ligand-binding assay, wild-type dUSP; conditions: excitation 290 nm, emission 340 nm; 0.5 μm receptor
Procedure: The homodimer-enriched fraction of bacterial recombinant His-dUSP fusion protein was purified by nickel resin selection, elution with imidazole, centrifugal concentration, and then gel permeation chromatography (Superdex 200) with procedures and chemical sources exactly as already described previously Jones et al. (2000) Insect Biochem. Mol. Biol. 30, 671-679. The homodimer-enriched fraction of the purified His-USP fusion protein was raised to 2 ml of NaCl and a final concentration of 0.5 μm. For a fluorescence-based ligand-binding assay based on intrinsic tryptophan fluorescence Jones et al. (2001) Insect Biochem. Mol. Biol. 32, 33-49; Jones et al (1998) Biochem. J. 335, 79-84; 79-84; Jones et al. (2000) Biochem. J. 346, 233-240; Jones et al (1997) Proc. Natl. Acad. Sci. USA 94, 13499-13503, ligand or ethanol carrier was added and the receptor preparation excited at 290 nm and monitored for emission at 340 nm, until the signal from the receptor had stabilized. Fluorescence was measured three times for each sample, with standard deviation typically smaller than the graphical plotted datum point. Each fluorescence experiment was replicated on three or more independent occasions, each time with similar results.
The ability of the wild-type dUSP and dominant negative, ligand-binding pocket mutant dUSP to bind methyl epoxyfarnesoate was tested.

| Molecule | effect on receptor intrinsic fluorescence (ligand binding), wild-type dUSP |
| --- | --- |
| CC(C)=CCCC(C)=CCCC(C)=CCO [farnesol] | do not have that effect |

test system: 4DR12Core reporter promoter in Sf9 cells (endogenous USP); test: Dominant negative activity of transfected dUSP mutants on methyl epoxyfarnesoate activation of 4DR12Core reporter in Sf9 cells; format: cell-based, Spodoptera frugiperda; conditions: Table 1, mutants envisioned
Excerpt: In another embodiment, mutant nuclear hormone receptors disclosed herein comprise amino acid substitutions that render the mutant to act as a “dominant negative.” Dominant negative proteins exploit protein-protein interactions, i.e., the interactions between a mutated protein produced by a transgene and the related native protein inside the cell. The mutant protein forms a dimer with an integral part of a wild type endogenous protein molecule. The mutant protein interacts with a whole range of native compatible gene products. Preferably, the mutant homodimerizes or heterodimerizes with an endogenous wild type partner to form a complex following ligand or independent of ligand binding. Preferably, as opposed to a complex of wild type monomers, a complex of a mutant and its endogenous wild type partner will be incapable of initiating transcription at a hormone receptor response reporter gene. Assays for determining dominant negative activity may be found in Examples 6 and 7 as well as FIG. 4.
Spodoptera frugiperda cell line, Sf9, was maintained and transfected as described previously Jones et al (1998) Biochem. J. 335, 79-84; Jones et al. (2000) Biochem. J. 346, 233-240. As an internal control to compare activities of different constructs, 0.3 μg of a constituitive heat-shock promoter-driven β-galactosidase gene was cotransfected. To study the role of USP in activation of the nuclear hormone receptor response element fused to core promoter in methyl epoxyfarnesoate-treated cells, cloned D. melangaster USP (dUSP) cDNA and its derivatives containing mutations in the ligand-binding pocket were cotransfected with the reporter and internal control plasmids. […] After 48 h of the treatment, the cells were harvested and the activity of the luciferase reporter was measured using a luciferase assay kit (Promega) in a multipurpose scintillation counter (Beckman, Fullerton, Calif.). β-Galactosidase activity was measured using chlorophenol red-[…] monosodium (CPRG; Roche Molecular Biochemicals) as a colorimetric substrate.
His-tagged dUSP dominant negative double mutant Cys472Ala/His475Leu (C472A/H475L) was over expressed in methyl epoxyfarnesoate-treated Sf9 cells that were cotransfected with the 4DR12Core reporter plasmid.
Under the model that overexpression of the C472A/H475L double mutant competed with endogenous USP in the pathways for transduction of the exogenous methyl epoxyfarnesoate signal, the level of effect of the double mutant ought to be dependent on its dose. […] This background of the blocked activation pathway was used to test whether activation by methyl epoxyfarnesoate treatment was actually dependent on the presence of wild-type USP. […] Again, over the range of the monotonic restoration of methyl epoxyfarnesoate-activated transcription, there was no effect of the transfected wild-type dUSP on the basal level of transcription in EtOH-treated controls.

| Molecule | Dominant Negative Activity |
| --- | --- |
| B1 | Weak Activity |
| B2 | Weak Activity |
| B3 | Weak Activity |
| B4 | Weak Activity |

same assay, conditions: receptor overexpressed in Sf9 cells, 75 μm methyl epoxyfarnesoate

| Molecule | dominant negative effect on methyl epoxyfarnesoate-induced activation of 4DR12Core promoter |
| --- | --- |
| B5 | distinct suppression; also recorded: progressive suppression |
| B6 | acted as a dominant negative suppressor |
| B1 | weak dominant negative |
| B7 | not a dominant negative |
| B8 | not a dominant negative |

test system: DR12 motif; test: Electrophoretic mobility shift assay of recombinant dUSP on DR12 probe; format: binding; conditions: 500 nm His-tagged receptor
Excerpt: Nuclear extracts were isolated from Sf9 cells as previously described Jones et al. (2001) Insect Biochem. Mol. Biol. 32, 33-49; Jones et al (1998) Biochem. J. 335, 79-84; 79-84; Jones et al. (2000) Biochem. J. 346, 233-240. For the DR12 probe, the double stranded DR12 oligonucleotide (sequence as shown above) was 5′ end-labelled with ^32P by T4 polynucleotide kinase (New England Biolabs Inc.), and then purified from a 20% native polyacrylamide gel. The same double stranded DR12 oligonucleotide was used in 100-fold excess as a self competitor. For the 4DR12Core probe, the 4DR12Core sequence was liberated from the vector as a 148-bp ClaI/HindIII fragment, and was 5′ end-labelled with ^32P and purified. The same, unlabelled fragment was used at 100-fold excess as a self competitor. As a negative control for specificity in gel shifts, the 36 bp BglII/KpnI polylinker region fragment of the pGL3 vector was liberated and recovered from low melting point agarose gels and used as a 100 nonself competitor (sequence: […], SEQ ID NO: 17). […]
In addition, both receptor preparations bound to the probe similarly in part as monomer and in part as homodimer. […] Thus, any difference detected in ligand binding of the two receptors is most reasonably inferred as arising from differences in the architecture inside the cavity of the ligand-binding pocket due to the C472A/H475L point mutations.

| Molecule | binding to DR12 motif in gel shift |
| --- | --- |
| B5 | similarly bound to a DR12 motif |
| B9 | similarly bound to a DR12 motif |
